Here are results for three sequences from the supplement of paper PMC5998384.

Data set [1] relates to HeLa Kyoto. Nature of the data set: thermal stability score vs G1/S (z-score of summed log2 fold changes over temperatures); higher = more thermally stable than in G1/S.
Data set [2] concerns HeLa Kyoto. Nature of the data set: melting temperature (median over replicates), in situ; higher = more thermally stable.
Data set [3] has as its system HeLa Kyoto. Nature of the data set: solubility change mitosis vs G1/S (difference of NP-40 vs SDS log2 ratios) (log2 ratio difference); higher = more soluble in mitosis.
In data set [4] the test system is HeLa Kyoto. Description: solubility in G1/S (NP-40 vs SDS abundance) (log2 ratio); higher = more soluble. The following applies: cell cycle stage: G1/S.
Setting [5] is: cell cycle stage: early G1 (4.5 h after nocodazole release).
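Wherever melting temperature (median over replicates), in situ is given: HeLa Kyoto cells synchronized by double thymidine or nocodazole block, proteins quantified by TMT10plex mass spectrometry, three independent biological replicates.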
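Wherever solubility change mitosis vs G1/S (difference of NP-40 vs SDS log2 ratios) is given: synchronized HeLa Kyoto cells (double thymidine block for G1/S, nocodazole release for mitosis), protein amounts in NP-40 versus SDS lysates quantified by mass spectrometry, three biological replicates.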
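Wherever solubility in G1/S (NP-40 vs SDS abundance) is given: HeLa Kyoto cells arrested at G1/S by double thymidine block, proteins quantified by TMT10plex mass spectrometry in mild NP-40 versus SDS extracts, three biological replicates.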
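Wherever thermal stability score vs G1/S (z-score of summed log2 fold changes over temperatures) is given: synchronized HeLa Kyoto cells, proteins quantified by TMT10plex mass spectrometry, three biological replicates, mitosis taken 0.5 h after nocodazole release, G1/S directly after double thymidine block.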

For “MGCWGRNRGRLLCMLALTFMFMVLEVVVSRVTSSLAMLSDSFHMLSDVLALVVALVAERFARRTHATQKNTFGWIRAEVMGALVNAIFLTGLCFAILLEAIERFIEPHEMQQPLVVLGVGVAGLLVNVLGLCLFHHHSGFSQDSGHGHSHGGHGHGHGLPKGPRVKSTRPGSSDINVAPGEQGPDQEETNTLVANTSNSNGLKLDPADPENPRSGDTVEVQVNGNLVREPDHMELEEDRAGQLNMRGVFLHVLGDALGSVIVVVNALVFYFSWKGCSEGDFCVNPCFPDPCKAFVEIINSTHASVYEAGPCWVLYLDPTLCVVMVCILLYTTYPLLKESALILLQTVPKQIDIRNLIKELRNVEGVEEVHELHVWQLAGSRIIATAHIKCEDPTSYMEVAKTIKDVFHNHGIHATTIQPEFASVGSKSSVVPCELACRTQCALKQCCGTLPQAPSGKDAEKTPAVSISCLELSNNLEKKPRRTKAENIPAVVIEIKNMPNKQPESSL [SLC30A1]”, the thermal stability score was -2.04 in data set [1] (setting [5]) and -1.95 in data set [1] (cell cycle stage: mitosis). For the same sequence, the melting temperature in data set [2] (cell cycle stage: G1/S) was 58.4 °C; in data set [2] (cell cycle stage: mitosis) it was 59.4 °C. The “solubility change mitosis (log2)” value in data set [3] was -0.0896. In addition, in data set [4], the “solubility in G1/S (log2)” value was -0.0235.

For “MGDAPSPEEKLHLITRNLQEVLGEEKLKEILKERELKIYWGTATTGKPHVAYFVPMSKIADFLKAGCEVTILFADLHAYLDNMKAPWELLELRVSYYENVIKAMLESIGVPLEKLKFIKGTDYQLSKEYTLDVYRLSSVVTQHDSKKAGAEVVKQVEHPLLSGLLYPGLQALDEEYLKVDAQFGGIDQRKIFTFAEKYLPALGYSKRVHLMNPMVPGLTGSKMSSSEEESKIDLLDRKEDVKKKLKKAFCEPGNVENNGVLSFIKHVLFPLKSEFVILRDEKWGGNKTYTAYVDLEKDFAAEVVHPGDLKNSVEVALNKLLDPIREKFNTPALKKLASAAYPDPSKQKPMAKGPAKNSEPEEVIPSRLDIRVGKIITVEKHPDADSLYVEKIDVGEAEPRTVVSGLVQFVPKEELQDRLVVVLCNLKPQKMRGVESQGMLLCASIEGINRQVEPLDPPAGSAPGEHVFVKGYEKGQPDEELKPKKKVFEKLQADFKISEECIAQWKQTNFMTKLGSISCKSLKGGNIS [YARS]”, the thermal stability score in data set [1] (setting [5]) worked out at 0.25; in data set [1] (cell cycle stage: mitosis), 2.33. The melting temperature stood at 49.3 °C in data set [2] (cell cycle stage: G1/S) and 49.4 °C in data set [2] (cell cycle stage: mitosis). Moreover, the “solubility change mitosis (log2)” value in data set [3] was -0.092. The “solubility in G1/S (log2)” value in data set [4] was determined as 0.259.

Turning to “MGDMTNSDFYSKNQRNESSHGGEFGCTMEELRSLMELRGTEAVVKIKETYGDTEAICRRLKTSPVEGLPGTAPDLEKRKQIFGQNFIPPKKPKTFLQLVWEALQDVTLIILEIAAIISLGLSFYHPPGEGNEGCATAQGGAEDEGEAEAGWIEGAAILLSVICVVLVTAFNDWSKEKQFRGLQSRIEQEQKFTVVRAGQVVQIPVAEIVVGDIAQVKYGDLLPADGLFIQGNDLKIDESSLTGESDQVRKSVDKDPMLLSGTHVMEGSGRMLVTAVGVNSQTGIIFTLLGAGGEEEEKKDKKGVKKGDGLQLPAADGAAASNAADSANASLVNGKMQDGNVDASQSKAKQQDGAAAMEMQPLKSAEGGDADDRKKASMHKKEKSVLQGKLTKLAVQIGKAGLVMSAITVIILVLYFTVDTFVVNKKPWLPECTPVYVQYFVKFFIIGVTVLVVAVPEGLPLAVTISLAYSVKKMMKDNNLVRHLDACETMGNATAICSDKTGTLTTNRMTVVQAYVGDVHYKEIPDPSSINTKTMELLINAIAINSAYTTKILPPEKEGALPRQVGNKTECGLLGFVLDLKQDYEPVRSQMPEEKLYKVYTFNSVRKSMSTVIKLPDESFRMYSKGASEIVLKKCCKILNGAGEPRVFRPRDRDEMVKKVIEPMACDGLRTICVAYRDFPSSPEPDWDNENDILNELTCICVVGIEDPVRPEVPEAIRKCQRAGITVRMVTGDNINTARAIAIKCGIIHPGEDFLCLEGKEFNRRIRNEKGEIEQERIDKIWPKLRVLARSSPTDKHTLVKGIIDSTHTEQRQVVAVTGDGTNDGPALKKADVGFAMGIAGTDVAKEASDIILTDDNFSSIVKAVMWGRNVYDSISKFLQFQLTVNVVAVIVAFTGACITQDSPLKAVQMLWVNLIMDTFASLALATEPPTETLLLRKPYGRNKPLISRTMMKNILGHAVYQLALIFTLLFVGEKMFQIDSGRNAPLHSPPSEHYTIIFNTFVMMQLFNEINARKIHGERNVFDGIFRNPIFCTIVLGTFAIQIVIVQFGGKPFSCSPLQLDQWMWCIFIGLGELVWGQVIATIPTSRLKFLKEAGRLTQKEEIPEEELNEDVEEIDHAERELRRGQILWFRGLNRIQTQIRVVKAFRSSLYEGLEKPESRTSIHNFMAHPEFRIEDSQPHIPLIDDTDLEEDAALKQNSSPPSSLNKNNSAIDSGINLTTDTSKSATSSSPGSPIHSLETSL [ATP2B2]”, the thermal stability score in data set [1] (setting [5]) is -1.72; in data set [1] (cell cycle stage: mitosis) it was -2.96. In addition, the values for the melting temperature in data set [2] (cell cycle stage: G1/S) and in data set [2] (cell cycle stage: mitosis) were 54.2 °C and 53.6 °C, respectively. Also, in data set [3], the “solubility change mitosis (log2)” value is -0.123. The “solubility in G1/S (log2)” value in data set [4] is -0.538.
